From the Human Domainome abundance scans (Beltran et al. 2025)
± gives the uncertainty stated by the source.

B1: POU domain, class 3, transcription factor 2, residues 356 to 411; numbered along this chain, P20265 (parent)
chain: KKRTSIEVSVKGALESHFLKCPKPSAQEITSLADSLQLEKEVVRVWFCNRRQKEKR

Variants of: B1
Assay: abundance fitness (aPCA) (normalised: wild type 0, dead -1); higher = more abundant; growth selection in yeast, the domain comes from the species named
Details: Homo sapiens

Row | Variant | abundance fitness
1 | KKRTSIEVSVKGALESHFLKCPKPSAQEITSLADSLQLEKVVVRVWFCNRRQKEKR | -0.596 ± 0.1
2 | KKRTSIEVSVKGALESHFLKCPKPSAQEITSLADSLQLEKHVVRVWFCNRRQKEKR | -0.168 ± 0.19
3 | KKRTSIEVSVKGALESHFLKCPKPSAQEITSLADSLQLEKTVVRVWFCNRRQKEKR | -0.303 ± 0.13
4 | KKRTSIEVSVKGALESHFLKCPKPSAQEITSLADSLQLEKPVVRVWFCNRRQKEKR | -0.697 ± 0.14
5 | KKRTSIEVSVKGALESHFLKCPKPSAQEITSLADSLQLEKNVVRVWFCNRRQKEKR | -0.069 ± 0.18
6 | KKRTSIEVSVKGALESHFLKCPKPSAQEITSLADSLQLEKFVVRVWFCNRRQKEKR | -0.723 ± 0.22
7 | KKRTSIEVSVKGALESHFLKCPKPSAQEITSLADSLQLEKWVVRVWFCNRRQKEKR | -0.494 ± 0.11
8 | KKRTSIEVSVKGALESHFLKCPKPSAQEITSLADSLQLEKYVVRVWFCNRRQKEKR | -0.489 ± 0.18
9 | KKRTSIEVSVKGALESHFLKCPKPSAQEITSLADSLQLEKRVVRVWFCNRRQKEKR | -0.337 ± 0.078
10 | KKRTSIEVSVKGALESHFLKCPKPSAQEITSLADSLQLEKSVVRVWFCNRRQKEKR | -0.256 ± 0.086
11 | KKRTSIEVSVKGALESHFLKCPKPSAQEITSLADSLQLEKMVVRVWFCNRRQKEKR | -0.791 ± 0.2
12 | KKRTSIEVSVKGALESHFLKCPKPSAQEITSLADSLQLEKKVVRVWFCNRRQKEKR | -0.446 ± 0.17
13 | KKRTSIEVSVKGALESHFLKCPKPSAQEITSLADSLQLEKGVVRVWFCNRRQKEKR | -0.408 ± 0.085
14 | KKRTSIEVSVKGALESHFLKCPKPSAQEITSLADSLQLEKLVVRVWFCNRRQKEKR | -0.881 ± 0.1
15 | KKRTSIEVSVKGALESHFLKCPKPSAQEITSLADSLQLEKQVVRVWFCNRRQKEKR | -0.26 ± 0.14
16 | KKRTSIEVSVKGALESHFLKCPKPSAQEITSLADSLQLEKEVVRVDFCNRRQKEKR | -0.318 ± 0.38
17 | KKRTSIEVSVKGALESHFLKCPKPSAQEITSLADSLQLEKEVVRVFFCNRRQKEKR | -0.393 ± 0.15
18 | KKRTSIEVSVKGALESHFLKCPKPSAQEITSLADSLQLEKEVVRVIFCNRRQKEKR | -0.932 ± 0.19
19 | KKRTSIEVSVKGALESHFLKCPKPSAQEITSLADSLQLEKEVVRVGFCNRRQKEKR | -0.92 ± 0.1
20 | KKRTSIEVSVKGALESHFLKCPKPSAQEITSLADSLQLEKEVVRVEFCNRRQKEKR | -0.946 ± 0.17
21 | KKRTSIEVSVKGALESHFLKCPKPSAQEITSLADSLQLEKEVVRVAFCNRRQKEKR | -0.932 ± 0.13
22 | KKRTSIEVSVKGALESHFLKCPKPSAQEITSLADSLQLEKEVVRVHFCNRRQKEKR | -0.927 ± 0.23
23 | KKRTSIEVSVKGALESHFLKCPKPSAQEITSLADSLQLEKEVVRVCFCNRRQKEKR | -0.826 ± 0.35
24 | KKRTSIEVSVKGALESHFLKCPKPSAQEITSLADSLQLEKERVRVWFCNRRQKEKR | -0.363 ± 0.079

Row | Variant | abundance fitness
25 | KKRTSIEVSVKGALESHFLKCPKPSAQEITSLADSLQLEKEYVRVWFCNRRQKEKR | 0.05 ± 0.2
26 | KKRTSIEVSVKGALESHFLKCPKPSAQEITSLADSLQLEKEDVRVWFCNRRQKEKR | 0.051 ± 0.19
27 | KKRTSIEVSVKGALESHFLKCPKPSAQEITSLADSLQLEKEEVRVWFCNRRQKEKR | 0.01 ± 0.096
28 | KKRTSIEVSVKGALESHFLKCPKPSAQEITSLADSLQLEKENVRVWFCNRRQKEKR | -0.309 ± 0.19
29 | KKRTSIEVSVKGALESHFLKCPKPSAQEITSLADSLQLEKECVRVWFCNRRQKEKR | -0.01 ± 0.2
30 | KKRTSIEVSVKGALESHFLKCPKPSAQEITSLADSLQLEKEGVRVWFCNRRQKEKR | -0.453 ± 0.08
31 | KKRTSIEVSVKGALESHFLKCPKPSAQEITSLADSLQLEKETVRVWFCNRRQKEKR | -0.02 ± 0.12
32 | KKRTSIEVSVKGALESHFLKCPKPSAQEITSLADSLQLEKESVRVWFCNRRQKEKR | -0.179 ± 0.11
33 | KKRTSIEVSVKGALESHFLKCPKPSAQEITSLADSLQLEKEHVRVWFCNRRQKEKR | 0.081 ± 0.22
34 | KKRTSIEVSVKGALESHFLKCPKPSAQEITSLADSLQLEKEMVRVWFCNRRQKEKR | -0.299 ± 0.11
35 | KKRTSIEVSVKGALESHFLKCPKPSAQEITSLADSLQLEKEKVRVWFCNRRQKEKR | -0.116 ± 0.14
36 | KKRTSIEVSVKGALESHFLKCPKPSAQEITSLADSLQLEKEFVRVWFCNRRQKEKR | -0.042 ± 0.15
37 | KKRTSIEVSVKGALESHFLKCPKPSAQEITSLADSLQLEKEWVRVWFCNRRQKEKR | -0.147 ± 0.094
38 | KKRTSIEVSVKGALESHFLKCPKPSAQEITSLADSLQLEKEPVRVWFCNRRQKEKR | -0.869 ± 0.23
39 | KKRTSIEVSVKGALESHFLKCPKPSAQEITSLADSLQLEKEIVRVWFCNRRQKEKR | -0.204 ± 0.11
40 | KKRTSIEVSVKGALESHFLKCPKPSAQEITSLADSLQLEKEAVRVWFCNRRQKEKR | -0.089 ± 0.083
41 | KKRTSIEVSVKGALESHFLKCPKPSAQEITSLADSLQLEKEQVRVWFCNRRQKEKR | -0.136 ± 0.16
42 | KKRTSIEVSVKGALESHFLKCPKPSAQEITSLADSLQLEKEVVRSWFCNRRQKEKR | 0.097 ± 0.076
43 | KKRTSIEVSVKGALESHFLKCPKPSAQEITSLADSLQLEKEVVRRWFCNRRQKEKR | -0.293 ± 0.09
44 | KKRTSIEVSVKGALESHFLKCPKPSAQEITSLADSLQLEKEVVRPWFCNRRQKEKR | -0.784 ± 0.13
45 | KKRTSIEVSVKGALESHFLKCPKPSAQEITSLADSLQLEKEVVRCWFCNRRQKEKR | -0.294 ± 0.12
46 | KKRTSIEVSVKGALESHFLKCPKPSAQEITSLADSLQLEKEVVRDWFCNRRQKEKR | 0.07 ± 0.078
47 | KKRTSIEVSVKGALESHFLKCPKPSAQEITSLADSLQLEKEVVRLWFCNRRQKEKR | -0.033 ± 0.084
